From patent US20250282866A1 (VIGIL NEUROSCIENCE, published 2025)
Positions count from the first letter of the chain named.

T1: human TREM2 (human, UniProt Q9NZC2 19-174, limits assumed)
T1 construct: also called triggering receptor expressed on myeloid cells 2
T1 sequence: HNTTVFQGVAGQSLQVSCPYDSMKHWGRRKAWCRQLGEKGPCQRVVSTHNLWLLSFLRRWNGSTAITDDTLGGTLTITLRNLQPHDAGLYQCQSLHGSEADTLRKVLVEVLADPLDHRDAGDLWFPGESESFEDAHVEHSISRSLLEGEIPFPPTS

B1: V6 (antibody, V domains shown)
VH: EVQLVQSGAEVKKPGESLKISCKGSGYSFTSMWIAWVRQMPGKGLEWMGIIYPGDSDTRYSPSFQGQVTISADKSISTAYLQWSSLKASDTAMYFCARQRTFYYDSSDYFDYWGQGTLVTVSS
VL: DIQMTQSPSSVSASVGDRVTITCRASQGISSWLAWYQQKPGKAPKLLIYAASSLQNGVPSRFSGSGSGTDFTLTISSLQPEDFATYFCQQADSFPRTFGQGTKLEIK
B2: V19 (antibody, V domains shown)
VH: B1 VH with M32S
VL: B1 VL
B3: V9 (antibody, V domains shown)
VH: B1 VH with M32Y, T101G
VL: B1 VL
B4: V55 (antibody, V domains shown)
VH: B1 VH with M32Y, R59I, F64H
VL: B1 VL
B5: V42 (antibody, V domains shown)
VH: B1 VH with M32A
VL: B1 VL
B6: V54 (antibody, V domains shown)
VH: B1 VH with M32Q
VL: B1 VL
B7: V32 (antibody, V domains shown)
VH: B1 VH with M32Y, P62N
VL: B1 VL
B8: V70 (antibody, V domains shown)
VH: B1 VH with M32Y
VL: B1 VL with S52G
B9: V35 (antibody, V domains shown)
VH: B1 VH with M32Y
VL: B1 VL with D92Y
B10: V66 (antibody, V domains shown)
VH: B1 VH with Y27T, M32Y
VL: B1 VL
B11: V33 (antibody, V domains shown)
VH: B1 VH with M32Y, Y104G
VL: B1 VL
B12: V11 (antibody, V domains shown)
VH: B1 VH with M32Y
VL: B1 VL with D92A
B13: V10 (antibody, V domains shown)
VH: B1 VH with M32Y
VL: B1 VL with A50S
B14: V22 (antibody, V domains shown)
VH: B1 VH with M32Y
VL: B1 VL with A50R
B15: V18 (antibody, V domains shown)
VH: B1 VH with M32Y, W33H
VL: B1 VL
B16: V7 (antibody, V domains shown)
VH: B1 VH with M32E
VL: B1 VL
B17: V59 (antibody, V domains shown)
VH: B1 VH with M32Y
VL: B1 VL with Q89M
B18: V46 (antibody, V domains shown)
VH: B1 VH with M32Y
VL: B1 VL with S53T
B19: V57 (antibody, V domains shown)
VH: B1 VH with M32Y
VL: B1 VL with R24A
B20: V58 (antibody, V domains shown)
VH: B1 VH with M32Y
VL: B1 VL with A50K
B21: V71 (antibody, V domains shown)
VH: B1 VH with M32Y
VL: B1 VL with F94E
B22: V21 (antibody, V domains shown)
VH: B1 VH with M32Y, Y109F
VL: B1 VL
B23: V45 (antibody, V domains shown)
VH: B1 VH with M32Y
VL: B1 VL with W32F
B24: V43 (antibody, V domains shown)
VH: B1 VH with M32Y, D57G
VL: B1 VL
B25: V69 (antibody, V domains shown)
VH: B1 VH with M32Y
VL: B1 VL with W32Y
B26: V78 (antibody, V domains shown)
VH: B1 VH with S28R, M32Y
VL: B1 VL
B27: V56 (antibody, V domains shown)
VH: B1 VH with M32Y, S61Q
VL: B1 VL
B28: V20 (antibody, V domains shown)
VH: B1 VH with M32Y, I50R
VL: B1 VL
B29: V34 (antibody, V domains shown)
VH: B1 VH with M32Y
VL: B1 VL with N56D
B30: V47 (antibody, V domains shown)
VH: B1 VH with M32Y
VL: B1 VL with R96M
B31: V8 (antibody, V domains shown)
VH: B1 VH with M32Y, R59K
VL: B1 VL
B32: V67 (antibody, V domains shown)
VH: B1 VH with M32Y, I50M
VL: B1 VL
B33: V30 (antibody, V domains shown)
VH: B1 VH with Y27S, M32Y
VL: B1 VL
B34: V23 (antibody, V domains shown)
VH: B1 VH with M32Y
VL: B1 VL with R96L
B35: V44 (antibody, V domains shown)
VH: B1 VH with M32Y, G54S
VL: B1 VL
B36: V68 (antibody, V domains shown)
VH: B1 VH with M32Y, Y103R
VL: B1 VL

What follows are binders tested against T1, human TREM2 (assay: 2nd screen 100 nM).

| Binding Signal (fold over 6E7 Parental antibody) [fold] | Binder |
| --- | --- |
| 0.56 | B1 |
| 0.48 | B2 |
| 0.54 | B3 |
| 0.66 | B4 |
| 0.41 | B5 |
| 0.54 | B6 |
| 0.89 | B7 |
| 0.84 | B8 |
| 0.29 | B9 |
| 0.74 | B10 |
| 0.34 | B11 |
| 0.42 | B12 |
| 0.7 | B13 |
| 0.71 | B14 |
| 0.42 | B15 |
| 0.32 | B16 |
| 0.6 | B17 |
| 0.96 | B18 |

| Binding Signal (fold over 6E7 Parental antibody) [fold] | Binder |
| --- | --- |
| 0.85 | B19 |
| 0.68 | B20 |
| 0.48 | B21 |
| 0.68 | B22 |
| 0.53 | B23 |
| 0.33 | B24 |
| 0.4 | B25 |
| 1.11 | B26 |
| 0.59 | B27 |
| 0.52 | B28 |
| 1.02 | B29 |
| 0.47 | B30 |
| 0.77 | B31 |
| 0.84 | B32 |
| 0.72 | B33 |
| 0.4 | B34 |
| 0.52 | B35 |
| 0.43 | B36 |

Each binder was assayed against T1, human TREM2 (assay: 1st screen (110 nM or 10 nM)).

| Binding Signal (fold over 6E7 Parental antibody) [fold] | Binder |
| --- | --- |
| 0.2 | B1 |
| 0.59 | B2 |
| 0.67 | B3 |
| 0.24 | B4 |
| 0.45 | B5 |
| 0.55 | B6 |
| 0.82 | B7 |
| 0.79 | B8 |
| 0.21 | B9 |
| 0.25 | B10 |
| 0.23 | B11 |
| 0.79 | B12 |
| 0.76 | B13 |
| 0.3 | B14 |
| 0.17 | B15 |
| 0.11 | B16 |
| 0.19 | B17 |
| 0.83 | B18 |

| Binding Signal (fold over 6E7 Parental antibody) [fold] | Binder |
| --- | --- |
| 0.84 | B19 |
| 0.28 | B20 |
| 0.37 | B21 |
| 0.76 | B22 |
| 0.43 | B23 |
| 0.2 | B24 |
| 0.41 | B25 |
| 0.86 | B26 |
| 0.23 | B27 |
| 0.18 | B28 |
| 0.34 | B29 |
| 0.42 | B30 |
| 0.28 | B31 |
| 0.8 | B32 |
| 0.79 | B33 |
| 0.4 | B34 |
| 0.65 | B35 |
| 0.44 | B36 |
